A short description of this series: yeast display, Sf9 membrane polyspecificity reagent, FACS + sequencing; frameworks hold sequencing errors. An outline of the steps: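 Using colony PCR, genes from sorted yeast display clones were amplified, then sequenced on MiSeq at 2 × 250 and filtered by CDR length. The clones had been stained with 10% biotinylated, detergent-solubilized Sf9 membrane reagent for 1 hour at 4 °C and sorted by FACS into low and high (top ~1%) gates on anti-HA and streptavidin fluorescence. Polyreactivity labels come from the gate of origin.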
For the sequence “QVQLVESGGGLVQAGGSVRLSCAASGSIFTGYAMGWYRQAPGKERELVAAISRSSGSTYYADSVKGRFTISRDNAKNTVYLQMNSLKPEDTAVYYCNAYSKYRSGRLYWMGYWGQGTQVTVSS”, the “polyreactivity (PSR sort gate)” value is “high polyreactivity”.

As to “QVQLVESGGGLVQAGGTLLLTCAASGFIFDIYAMGWSRPAPGKERELVAAITWNSGSTHYADSVKGRFTISRDTAKNTVYLQMNRLKPEDTAVYYCAADEVTYAYYPYDYWGQGTQVTVSS”, the “polyreactivity (PSR sort gate)” value is recorded as “low polyreactivity”.

Turning to “QVQLVESGGGLVQAGGTLRISCAASGITINYNAMGWYRQAPGKEMELVAAITRSGGSTNYADSVKGRFTISRDNAKNTVYLQMNSLKPEDTAVYYCAKGHLYAGHRHYAYGYWGQGTQVTVSS”, the “polyreactivity (PSR sort gate)” value was “low polyreactivity”.

“QVQLVESGGGLVQAGGTLRISCAASGSIFWYYAMGSYRQAPGKERELVAAISKSGGSTYYADSVKVRFTISRDNAKNTVYLQMNSLKQEDTAVYYCAKYGPVIDGVDYWGQGTQVTVSS”: the “polyreactivity (PSR sort gate)” value is “low polyreactivity”.

Turning to “QVQLVESGGGLVQAGGTLRLICAASGSTLYWNAMGLYRQAPGKQRELVAGISIGGRTNYADSVKGRFTISRDNAKNTVYLQMISLKPEDTAVYYCNAENTYLGSRYRPYNYWGQGTQVTVSS”, the “polyreactivity (PSR sort gate)” value was “low polyreactivity”.

As for “QVQLVESGGGLVQAGGTLRLICAATGRTFDFNAMGWYRQAPGKERELVAAITESGGSTYYADSVKGRFTISRDNAKNTVYLQMNSLKPEDTAVYYCAVAGNYYRDYPEVSYFSIYNYWGQGTQVTVSS”, the “polyreactivity (PSR sort gate)” value is reported as “low polyreactivity”.

As for “QVQLVESGGGLVQAGGTLRLSCAASGFIFDWNTKGWYRQAPGKERELVAAITESSGSTYYADSVKGRFTISRDNAKNTVYLQMNSLKPEDTAVYYCAAELDVYVSIGSRFHFDYWGQGTQVTVSS”, the “polyreactivity (PSR sort gate)” value is recorded as “low polyreactivity”.

With “QVQLVESGGGLVQAGGTLRLSCAASGFIFENYAMGWYRQAPGKERELVAAISSSGGSTYYADSVKGRFTISRDNAKNTVYLQMNSLKPEDTAVYYCAKDYAPSATKLHYWGQGTQVTVSS”, the “polyreactivity (PSR sort gate)” value is on record as “low polyreactivity”.

Turning to “QVQLVESGGGLVQAGGTLRLSCAASGFLFVFYDMGWYRQAPAKERELVAGITRNDGSTYYADSVKGRFKISRDNAKNTVYLLMNSLKPEDTAVYYCAADRVRRNDKLAYDYWGQGTQVTVSS”, the “polyreactivity (PSR sort gate)” value is reported as “low polyreactivity”.

As for “QVQLVESGGGLVQAGGTLRLSCAASGFTFGYYAMGWYRPAPGKERELVAAISSRGGTTYYADSVKGRFTISRDNAKNTVYLQMNSLKPEDTAVYYCAKDSFRNIYNYWGQGTQVTVSS”, the “polyreactivity (PSR sort gate)” value is recorded as “high polyreactivity”.

In the case of “QVQLVESGGGLVQAGGTLRLSCAASGGIFSYAMGWYRQAPGKERELVADINSDGSTTYADSVKGRFTISRDNAKNTVYLQMNSLKPEDTAVYYCAADTYFWSYSYNYYYWGQGTQVTVSS”, the “polyreactivity (PSR sort gate)” value was “low polyreactivity”.

For the sequence “QVQLVESGGGLVQAGGTLRLSCAASGIIFHWYAMGWYRQAPGKERELVAAITQSGGSTSYADSVKGRFTISRDNAKNTVYLQMNSLIPEDTAVYYCNAREVRDEYNYWGQGTQVTVSS”, the “polyreactivity (PSR sort gate)” value is recorded as “low polyreactivity”.

For the sequence “QVQLVESGGGLVQAGGTLRLSCAASGITLKLYVMGWYRQAPGKERELVAAISRRGGSTYYADSVKGRFTLSRDNAKYTVYLQMISLKPEDTAVYYCAKDGTQYERKDPAYGYWGQGTQVTVSS”, the “polyreactivity (PSR sort gate)” value is “high polyreactivity”.

Consider “QVQLVESGGGLVQAGGTLRLSCAASGLIFKKYTMGWYRQAPGKERELVASISKSGGSTYYADSVKGRFTISRDNAKNTVYLQMISLKPEESAVYYCNRVTHYIRFDYWGQGTQVTVSS”, for which the “polyreactivity (PSR sort gate)” value is listed as “low polyreactivity”.

With “QVQLVESGGGLVQAGGTLRLSCAASGLIFVRYAMGWYRQAPGKERELVATITDGGSKYYADSVKGRFTISRDNAKNTVYLQMNSLKPEDTAVYYCNKDRVSVRYEYWGQGTQVTVSS”, the “polyreactivity (PSR sort gate)” value is on record as “low polyreactivity”.

In the case of “QVQLVESGGGLVQAGGTLRLSCAASGRIFGPYAMGWYRQAPWKERELVAAISFSGSGTYYADSVKGRFTISRDNAKNTVYFQMNSLKAEDTAVYYCAATSRKIVAFDHDYWGQGTQVTVSS”, the “polyreactivity (PSR sort gate)” value was “low polyreactivity”.

As for “QVQLVESGGGLVQAGGTLRLSCAASGRTFRQNAMGWYRQAPGKERELVAAISVNGGRTYYADSVKGRFTITRDNAKITVYLQMNSLKPEDTAVYYCAAESYRIPRRSGYDYWGQGTQVTVSS”, the “polyreactivity (PSR sort gate)” value is reported as “high polyreactivity”.

Turning to “QVQLVESGGGLVQAGGTLRLSCAASGSIFAHYTMGWYRQAPGKERELVAVISRSGARTYYADSVKGRFTISRDNAKNTVYLQMNSLKPEDTAVYYCAADRTLEEDYWGQGTQVTVSS”, the “polyreactivity (PSR sort gate)” value was “low polyreactivity”.

For “QVQLVESGGGLVQAGGTLRLSCAASGSIFTHYAMGWYRQAPGKERELVAAISRRGGSTYYADSVKGRFTNSRDNAKNTVYLQMNSLKPEDSAVYYCAKSPDTAKEYDYWGQGTQVTVSS”, the “polyreactivity (PSR sort gate)” value was “high polyreactivity”.

In the case of “QVQLVESGGGLVQAGGTLRLSCAASGSTFGYPMGGYRQSPGKERELVAAMTSTGGSTYYADSVKGRFTISRDNAKITVYLQMNSQKPEDTAVYYCAADAYWIRSRFLYRIRYNYWGLGTQVTVSS”, the “polyreactivity (PSR sort gate)” value is “high polyreactivity”.

Consider “QVQLVESGGGLVQAGGTLRLSCAASGSTFGYYTMGWYRQAPGKERELVAAITWSGGSTYYADSVKGRFTISRDNAKKTVYLQMNSLKAEDSAVSYCAADDYWTPFGYSGQGTQVTVSS”, for which the “polyreactivity (PSR sort gate)” value is “low polyreactivity”.

In the case of “QVQLVESGGGLVQAGGTLRLSCAASGSTFIGNAMGWYIQAPGKERELVAAITRSGGSTFYADSVKGRFTISRDNAKNTVYLQMNSLKPEDTAVYYCAARNGAYPALKEGDYWGQGTQVTVSS”, the “polyreactivity (PSR sort gate)” value is “high polyreactivity”.

On to “QVQLVESGGGLVQAGGTLRLSCAASGSTFTGNAMGWYRQAPGKERELVASISTGGSTNYADSVKGRFTISRDNAKNTVYLQMNSLKPEDTAVYYCAKRIRYNWTFDDWGQGTQVTVSS”, for which the “polyreactivity (PSR sort gate)” value is listed as “low polyreactivity”.

Consider “QVQLVESGGGLVQAGGTLRLSCAASGSTFYRYAMGWYRTAPGKERELVATITRSGGSTYYADSVKGRFTISRDNAKNTVYLQMNSLKPEDTAVYYCAARGWYKSDYWGQGTQVTVSS”, for which the “polyreactivity (PSR sort gate)” value was “low polyreactivity”.

As to “QVQLVESGGGLVQAGGTLRLSCAASGSTFYSYAMGWYRQAPGKERELVAAISGRGGTTYYADSVKGRFTISRDNAKNTVYLQMNSLKPEDTAVYYCAAEGWDWWTDDDYWGQGTQVTVSS”, the “polyreactivity (PSR sort gate)” value is on record as “high polyreactivity”.

“QVQLVESGGGLVQAGGTLRLSCAASGVIFKVYGMRWYRQAPGKERELVAAISWTTGGTYYADSVKGRFTISRDNAKNTVYLQMNSLKPEDTAVYYCNAPSWYYSGVRYDYWGQGTQVTVSS”: the “polyreactivity (PSR sort gate)” value is given as “high polyreactivity”.

Turning to “QVQLVESGGGLVQAGGTLRLSCAASRITFWYYARGWYIQAPGKERELVAAITSGGSTYYADSVKGRFTISRDNAKNTVYLQMNSLKPEDTAVYYCAKDSVWGAKNLTSYKYYYWGQGTQVTGSS”, the “polyreactivity (PSR sort gate)” value is given as “low polyreactivity”.

Regarding “QVQLVESGGGLVQAGGTLRLSCADSGSTIRNYAMGWYRQAPGKERELVATISASGGSTYYADSVKGRFTISRDNAKNTVYLQLNSLKPEDTAVYYCNAVVKLWGLVIPPGDYDYWRQGTQVTVSS”, the “polyreactivity (PSR sort gate)” value is on record as “high polyreactivity”.

With “QVQLVESGGGLVQAGGTLRLSCAPSARTFDRNAMGWYRQAPGKERELVASISWVGTSTYYADSVKGRFTISRDNAKNTVYLQMNSLKPDDSAVYYCAARRVKYISLDYWGQGTQVTVSS”, the “polyreactivity (PSR sort gate)” value is on record as “low polyreactivity”.

For “QVQLVESGGGLVQAGGTLRLSCGASGGTFYLYTMGWYRPAPGKERELVAAISRGGSTNYADSVKGRFTISRDNAKNTVYLLMNSLIPEDTAVFYCAAVRSTGFRYYYADEYDYWGQGTQVTVSS”, the “polyreactivity (PSR sort gate)” value is recorded as “low polyreactivity”.

Consider “QVQLVESGGGLVQAGGTLRLSCGASGLIFTSNAMGWYRQAPGKESELVAAISNTGGSTYYADSVKGRFTISRDNSKNTVYLQMNSLKPEDTAVYYCAVDPAAGLTNVFYLKYFGYDFWGQGTQVTVSS”, for which the “polyreactivity (PSR sort gate)” value is “low polyreactivity”.

On to “QVQLVESGGGLVQAGGTLRLSCPASGRNILGYAMGWYRPAPGKERELVAALRRSGGHTFYADSVKGRFTISRDNAKNRVYFQMNSLKPEDTAVYYCAASTSGAIRRDGFWGQGTQVSVSS”, for which the “polyreactivity (PSR sort gate)” value is recorded as “low polyreactivity”.

Consider “QVQLVESGGGLVQAGGTLRLTCAASGSIFSAYAMGWYRQEPGKEREFVAAITRRGGNTYYADSVKGRFTISRDNAKNTVYVQMNSLKPEDTAVYYCAAVAGGGPFDYWGQGTQVTVSS”, for which the “polyreactivity (PSR sort gate)” value is on record as “low polyreactivity”.

With “QVQLVESGGGLVQAGRILRLSCAASGRTFDSNAMGWYRQAPGKERELVAAISYGGGTTHYADSVKGRFTISRDNAKNTVYLQMNSLKPEYTAVYYCSADPEHLCESVTIGEYDYWGQGTQVTLSS”, the “polyreactivity (PSR sort gate)” value is “low polyreactivity”.

Regarding “QVQLVESGGGLVQAGRSHRLSFAASGFTLKGYAMGWYRQAPGKDRELVAAISWNGGRTYYADSVKGRFTISRDNAKNTVYLQMNSLKPEVTAVYYCAAVYRFYSPTKYTYDYWGQGTQVTVSS”, the “polyreactivity (PSR sort gate)” value is “high polyreactivity”.

As for “QVQLVESGGGLVQAGRSLLLICAASGSTFAYYAMGWYRQAPGKERELVAAINYRATRTYYADSVKGRFTISRDNAKNTVYLQMNSLKPDDTAVDYCIAEPAYYRSNRWPRFEYWGQGTQVTVSS”, the “polyreactivity (PSR sort gate)” value is “high polyreactivity”.

In the case of “QVQLVESGGGLVQAGRSLRISCAASGYTFIYYPMGWYRPAPGKERELVATISIDGSTNYADSVKGRFTISRDNAKNTVYLQMNILKPEDTAVYYCNLERYEDYDYWGQGTQVTVSS”, the “polyreactivity (PSR sort gate)” value was “high polyreactivity”.

“QVQLVESGGGLVQAGRSLRLSCAASGITFGRNTMGWYRQAPGKERELVAAIDSGGNTYADSVKGRFTISRDNAKNTVYLQMNSLKPEDTAVYYCAVDGGEFSSYGYWGQGTQVTVSS”: the “polyreactivity (PSR sort gate)” value is recorded as “low polyreactivity”.

Consider “QVQLVESGGGLVQAGRSLRLSCAASGLIFPWNAMGWYRQAPGKQRELVAAINGRDGSTYYADSVKGRFTISRDNAKNTVYLQMNSLKPEDTAVYYCAKGPSGVRSYREYDSWGQGTQVTVSS”, for which the “polyreactivity (PSR sort gate)” value was “low polyreactivity”.

Consider “QVQLVESGGGLVQAGRSLRLSCAASGLTFSLYAMGWSRQAPGKERELVAANSWTGGSTYYADSVKGRFTISRDNAKNTVYLQMNSLKPEDTAVYYCNARYTLFARYGYDYWGQGTQVTVSS”, for which the “polyreactivity (PSR sort gate)” value was “low polyreactivity”.

For the origin of these results see the nanobody polyreactivity screen of Harvey et al. (2022).
